Our source for the Kd, koff and kon values is patent US20250340657A1 (CANTARGIA, published 2025).

First the molecules themselves.
B1: hCAN04 Variant 6 (antibody, human IgG1, kappa, V domains shown)
VH: QVQLVQSGAEVKKPGSSVKVSCKASGYAFTSSWMNWVRQAPGQGLEWMGRIYPGDGNTHYAQKFQGRVTLTADKSTSTAYMELSSLRSEDTAVYYCGEGYLDPMDYWGQGTLVTVSS
VL: DIQMTQSPSSLSASVGDRVTITCQASQGINNYLNWYQQKPGKAPKLLIHYTSGLHAGVPSRFSGSGSGTDYTLTISSLEPEDVATYYCQQYSILPWTFGGGTKVEIKR
notes: Human IgG1za / kappa, expressed in CHOK1SV cells; also called Var6; humanized variant 6 of CAN04
B2: hCAN04 Variant 1 (antibody, human IgG1, kappa, V domains shown)
VH: QVQLVQSGAEVKKPGSSVKVSCKASGYAFSSSWMNWVRQAPGQGLEWMGRIYPGDGNTHYAQKFQGRVTLTADKSTSTAYMELSSLRSEDTAVYYCGEGYLDPMDYWGQGTLVTVSS
VL: DIQMTQSPSSLSASVGDRVTITCSASQGINNYLNWYQQKPGKAPKLLIHYTSGLHAGVPSRFSGSGSGTDYTLTISSLQPEDVATYYCQQYSILPWTFGGGTKVEIKR
notes: Human IgG1za / kappa, expressed in CHOK1SV cells; also called Var1; humanized variant 1 of CAN04
B3: hCAN04 Variant 12 (antibody, human IgG1, kappa, V domains shown)
VH: QVQLVQSGAEVKKPGSSVKVSCKASGYTFTSSWMNWVRQAPGKGLEWMGRIYPGDGQTHYAQKFQGRVTITADKSTSTAYMELSSLRSEDTAVYYCGEGYLDPMDYWGQGTLVTVSS
VL: DIQMTQSPSSLSASVGDRVTITCQASQGINNYLNWYQQKPGKAPKLLIHYTSGLHAGVPSRFSGSGSGTDFTLTISSLEPEDVATYYCQQYSILPWTFGGGTKVEIKR
notes: Human IgG1za / kappa, expressed in CHOK1SV cells; also called Var 12; humanized variant 12 of CAN04
B4: hCAN04 Variant 7 (antibody, human IgG1, kappa, V domains shown)
VH: QVQLVQSGAEVKKPGSSVKVSCKASGYTFTSSWMNWVRQAPGKGLEWMGRIYPGDGQTHYAQKFQGRVTLTADKSTSTAYMELSSLRSEDTAVYYCGEGYLDPMDYWGQGTLVTVSS
VL: DIQMTQSPSSLSASVGDRVTITCQASQGINNYLNWYQQKPGKAPKLLIHYTSGLHAGVPSRFSGSGSGTDYTLTISSLEPEDVATYYCQQYSILPWTFGGGTKVEIKR
notes: Human IgG1za / kappa, expressed in CHOK1SV cells; also called Var7; humanized variant 7 of CAN04
B5: hCAN04 Variant 4 (antibody, human IgG1, kappa, V domains shown)
VH: QVQLVQSGAEVKKPGSSVKVSCKASGYTFTSSWMNWVRQAPGKGLEWMGRIYPGDGQTHYAQKFQGRVTITADKSTSTAYMELSSLRSEDTAVYYCGEGYLDPMDYWGQGTLVTVSS
VL: DIQMTQSPSSLSASVGDRVTITCSASQGINNYLNWYQQKPGKAPKLLIHYTSGLHAGVPSRFSGSGSGTDYTLTISSLQPEDVATYYCQQYSILPWTFGGGTKVEIKR
notes: Human IgG1za / kappa, expressed in CHOK1SV cells; also called Var4; humanized variant 4 of CAN04
B6: hCAN04 Variant 3 (antibody, human IgG1, kappa, V domains shown)
VH: QVQLVQSGAEVKKPGSSVKVSCKASGYTFTSSWMNWVRQAPGKGLEWMGRIYPGDGQTHYAQKFQGRVTLTADKSTSTAYMELSSLRSEDTAVYYCGEGYLDPMDYWGQGTLVTVSS
VL: DIQMTQSPSSLSASVGDRVTITCSASQGINNYLNWYQQKPGKAPKLLIHYTSGLHAGVPSRFSGSGSGTDYTLTISSLQPEDVATYYCQQYSILPWTFGGGTKVEIKR
notes: Human IgG1za / kappa, expressed in CHOK1SV cells; also called Var3; humanized variant 3 of CAN04
B7: hCAN04 Variant 9 (antibody, human IgG1, kappa, V domains shown)
VH: QVQLVQSGAEVKKPGSSVKVSCKASGYAFSSSWMNWVRQAPGQGLEWMGRIYPGDGNTHYAQKFQGRVTLTADKSTSTAYMELSSLRSEDTAVYYCGEGYLDPMDYWGQGTLVTVSS
VL: DIQMTQSPSSLSASVGDRVTITCQASQGINNYLNWYQQKPGKAPKLLIHYTSGLHAGVPSRFSGSGSGTDFTLTISSLEPEDVATYYCQQYSILPWTFGGGTKVEIKR
notes: Human IgG1za / kappa, expressed in CHOK1SV cells; also called Var9; humanized variant 9 of CAN04
B8: hCAN04 Variant 2 (antibody, human IgG1, kappa, V domains shown)
VH: QVQLVQSGAEVKKPGSSVKVSCKASGYAFTSSWMNWVRQAPGQGLEWMGRIYPGDGNTHYAQKFQGRVTLTADKSTSTAYMELSSLRSEDTAVYYCGEGYLDPMDYWGQGTLVTVSS
VL: DIQMTQSPSSLSASVGDRVTITCSASQGINNYLNWYQQKPGKAPKLLIHYTSGLHAGVPSRFSGSGSGTDYTLTISSLQPEDVATYYCQQYSILPWTFGGGTKVEIKR
notes: Human IgG1za / kappa, expressed in CHOK1SV cells; also called Var2; humanized variant 2 of CAN04
B9: hCAN04 Variant 8 (antibody, human IgG1, kappa, V domains shown)
VH: QVQLVQSGAEVKKPGSSVKVSCKASGYTFTSSWMNWVRQAPGKGLEWMGRIYPGDGQTHYAQKFQGRVTITADKSTSTAYMELSSLRSEDTAVYYCGEGYLDPMDYWGQGTLVTVSS
VL: DIQMTQSPSSLSASVGDRVTITCQASQGINNYLNWYQQKPGKAPKLLIHYTSGLHAGVPSRFSGSGSGTDYTLTISSLEPEDVATYYCQQYSILPWTFGGGTKVEIKR
notes: Human IgG1za / kappa, expressed in CHOK1SV cells; also called Var8; humanized variant 8 of CAN04
B10: hCAN04 Variant 5 (antibody, human IgG1, kappa, V domains shown)
VH: QVQLVQSGAEVKKPGSSVKVSCKASGYAFSSSWMNWVRQAPGQGLEWMGRIYPGDGNTHYAQKFQGRVTLTADKSTSTAYMELSSLRSEDTAVYYCGEGYLDPMDYWGQGTLVTVSS
VL: DIQMTQSPSSLSASVGDRVTITCQASQGINNYLNWYQQKPGKAPKLLIHYTSGLHAGVPSRFSGSGSGTDYTLTISSLEPEDVATYYCQQYSILPWTFGGGTKVEIKR
notes: Human IgG1za / kappa, expressed in CHOK1SV cells; also called Var5; humanized variant 5 of CAN04
B11: hCAN04 Variant 10 (antibody, human IgG1, kappa, V domains shown)
VH: QVQLVQSGAEVKKPGSSVKVSCKASGYAFTSSWMNWVRQAPGQGLEWMGRIYPGDGNTHYAQKFQGRVTLTADKSTSTAYMELSSLRSEDTAVYYCGEGYLDPMDYWGQGTLVTVSS
VL: DIQMTQSPSSLSASVGDRVTITCQASQGINNYLNWYQQKPGKAPKLLIHYTSGLHAGVPSRFSGSGSGTDFTLTISSLEPEDVATYYCQQYSILPWTFGGGTKVEIKR
notes: Human IgG1za / kappa, expressed in CHOK1SV cells; also called Var10; humanized variant 10 of CAN04
B12: hCAN04 Variant 11 (antibody, human IgG1, kappa, V domains shown)
VH: QVQLVQSGAEVKKPGSSVKVSCKASGYTFTSSWMNWVRQAPGKGLEWMGRIYPGDGQTHYAQKFQGRVTLTADKSTSTAYMELSSLRSEDTAVYYCGEGYLDPMDYWGQGTLVTVSS
VL: DIQMTQSPSSLSASVGDRVTITCQASQGINNYLNWYQQKPGKAPKLLIHYTSGLHAGVPSRFSGSGSGTDFTLTISSLEPEDVATYYCQQYSILPWTFGGGTKVEIKR
notes: Human IgG1za / kappa, expressed in CHOK1SV cells; also called Var11; humanized variant 11 of CAN04
B13: CAN04 (murine) as listed in Table 3 (antibody, human IgG1, kappa, V domains shown)
VH: QVQLQQSGPELLKPGASVKISCKASGYAFSSSWMNWVKQRPGKGLEWIGRIYPGDGNTHYSGKFKGKATLTADKSSSIAYMQLSSLTSEDSAVYFCGEGYLDPMDYWGQGTSVTVSS
VL: DIQMTQTTSSLSASLGDRVTISCSASQGINNYLNWYQQKPDGTVKLLIHYTSGLHAGVPSRFSGSGSGTDYSLTISNLEPEDVATYYCQQYSILPWTFGGGTKLEIKR
notes: Whether the footnotes apply to the row labelled '(murine)' is not certain
B14: CAN04 (antibody, V domains shown)
VH: QVQLQQSGPELLKPGASVKISCKASGYAFSSSWMNWVKQRPGKGLEWIGRIYPGDGNTHYSGKFKGKATLTADKSSSIAYMQLSSLTSEDSAVYFCGEGYLDPMDYWGQGTSVTVSS
VL: DIQMTQTTSSLSASLGDRVTISCSASQGINNYLNWYQQKPDGTVKLLIHYTSGLHAGVPSRFSGSGSGTDYSLTISNLEPEDVATYYCQQYSILPWTFGGGTKLEIKR
notes: Murine-derived monoclonal IgG; It was PE-conjugated on primary cells and AF488-labelled for confocal microscopy; also called exemplary antibody of the invention

For one experiment, the target named is T1, recombinant hIL1RAP 21-367 (human, UniProt Q9NPH3 21-367).
T1 construct: range 21-367; also called Rec hIL1RAP Domain123 (aa21-367); Domain123
Kind of experiment: indirect ELISA on coated hIL1RAP 21-367, three-fold dilutions from 3.5 nM. The protocol: An indirect ELISA assay was performed. All samples were analysed in duplicate. Nunc-MaxiSorp 96 Micro Well™ Plates were coated with 100 ng of recombinant hIL1RAP 21-367 (100 μl/well) diluted in 0.01M PBS, pH 7.4, and incubated overnight at 4° C. Plates were washed with ELISA washing buffer (0.01M PBS, 0.05% Tween 20, pH 7.4) followed by a blocking step using 150 μl/well of ELISA blocking solution (PBS, 0.5% BSA, 0.05% Tween 20, pH 7.4). After 1 h incubation at room temperature (RT) on agitation the plates were washed again using ELISA washing buffer. Samples were diluted in three fold serial dilution (ranging from 1000 ng/ml to 0.5 ng/ml) in ELISA blocking solution and then transferred to the ELISA plate, 100 μl/well. Plates were incubated at RT for 1 h on agitation and then washed with ELISA washing solution. 100 μl/well of rabbit anti-mouse IgG conjugated to Alkaline Phosohatase (DAKO, 1:1000) was added and incubated 1 hour at RT on agitation. The plates were washed followed by addition of substrate (4-Nitrophenyl phosphatise disodium salt hexahydrate, SIGMA, 1 mg/ml), 100 μl/well. The plates were thereafter incubated at RT on agitation and absorbance at 405 nm measured consecutively for 30 min. Absorbance at 0 min was taken as background signal.
An indirect ELISA assay was performed as described above with the alteration that the samples were diluted in a three-fold serial dilution starting at 3.5 nM and run in replicates of four.
By Kd is commonly meant the equilibrium constant for the complex coming apart. Consider B1, for which the Kd was 0.173 nM.
B2: the Kd was found to be 0.125 nM.
Same read-out and setting: the same measure for B3: 0.62 nM; for B4: 0.526 nM.
B5: the dissociation constant Kd was 0.47 nM.
Turning to B6, the Kd is 0.45 nM.
Same read-out and setting: next, B7: 0.21 nM; B8: 0.171 nM.
On the same count and under the same terms, next, B9: 0.402 nM; B10: 0.135 nM.
In the case of B11, the dissociation constant (Kd) stood at 0.301 nM.
Consider B12, for which the dissociation constant (Kd) was found to be 0.504 nM.
Still for that read-out and setting: next, B13: 0.088 nM.

For a further experiment, the target named is T2, human IL1RAP (analyte of the Biacore study) (human, UniProt Q9NPH3 21-367, limits assumed).
T2 construct: The methods say only 'the analyte (100 nM)'; The result sentence names it human IL1RAP; also called IL1-RAP protein; the analyte
Kind of experiment: SPR (Biacore T200), antibody captured on anti-mouse IgG, analyte 100 nM, 25 C. As for the experimental part: Goat anti-mouse IgG was immobilized on a CM5 chip according to the technical manual of capture kit and standard operation principle of BIAcore T200 (Biacore Life Sciences, GE Healthcare Europe GmbH, Uppsala, Sweden).
The capture molecule surface was regenerated after each binding cycle using the manufacturer's recommended conditions.
After five cycles of start-up, each antibody (100 nM) was injected at a flow rate of 30 μl/min, for 120 s, at the start of the cycle; then the analyte (100 nM) was injected at a flow rate of 30 μl/min, for 120 s, followed by monitoring the dissociation phase for 300 s.
Background: SPR reads the build-up and loss of mass on a sensor chip optically.
What is called koff is the first-order rate constant of dissociation. High values mean fast dissociation, low ones slow dissociation. One may read the kon as the second-order rate constant of association. Read a high kon as fast association. As to B14, the Kd is 0.11 nM, the dissociation rate constant (koff) was 4.72e-05 s⁻¹ and the kon stood at 427000 M⁻¹ s⁻¹.
